This is an account of results in paper PMC4238058, “Phase transitions of multivalent proteins can promote clustering of membrane receptors” (eLife, 2014).

Experiment [1] concerns the target T1, Nck (human, WT, residues 1-377) (human).
T1 construct: two extra N-terminal residues printed before Met1; Nck, human, WT, residues 1-377; source: E. coli BL21(DE3)T1R, purified (glutathione sepharose, TEV on beads, Source 15Q, Source 15S, SD75)
Briefly: ITC; Nck (150 uM) in the syringe titrated into 5 uM p-Nephrin (3pY) or p-TIR (3pY); 25 mM Hepes pH 7.5, 150 mM NaCl, 1 mM MgCl2, 2 mM TCEP; three-site binding model with a single affinity for Nck (NITPIC, Sedphat); the constant is that of one pTyr site. The settings on record: both partners purified. Background: ITC needs no label: the signal is the heat of the interaction.

Experiment [2] deals with T2, Nck (cysteine-modified; human, residues 1-377, C139S, C232A, C266S, C340S), fluorophore-labelled (human, C139S (stands in the printed letters) | C232A (stands in the printed letters) | …, maleimide Alexa568 (imaging of association and three color imaging) or Alexa488 (FRAP) on cysteine).
T2 construct: extra N-terminal residues printed before Met1, with the only cysteine left in the chain; Nck, human, residues 1-377 with C139S, C232A, C266S, C340S; The methods tell the expression and purification for GST-Nck; that the cysteine-modified form was made the same way is surmised; also called Nck Alexa568; Nck Alexa488; source: E. coli BL21(DE3)T1R, purified; labelled with a maleimide-conjugated …
Briefly: fluorescence (TIRF) microscopy of recruitment to a supported lipid bilayer; His8-p-Nephrin Alexa488 attached to a DOPC bilayer with 1% Ni2+-NTA DOGS; 1 uM Nck Alexa568 alone in solution; 25 mM Hepes pH 7.5, 150 mM NaCl, 1 mM MgCl2, 1 mM BME, 0.1% BSA. The conditions noted are these: both partners purified.

B1: triply phosphorylated TIR3Y (His8-tagged human Nephrin tail with its pTyr sites replaced by the pTyr motif of EPEC Tir) (domain or fragment)
chain: GGSLEHHHHHHHHGGSCGGSGGSGGSGGSHMHIYDEVAADPPPSGAWGHIYDEVAADPWDLHWPEDTFQDPRHIYDEVAADP
modifications: phosphotyrosine in each of the three Tir motifs (triply phosphorylated); fluorescent in the bilayer experiments
notes: N-terminal stretch as printed: holds the His8 tag named under tags, the Gly-Gly-Ser linker with the cysteine, and HM before the first Tir motif; Nephrin, human, stretch between the first and second pTyr sites; Nephrin, human, stretch between the second and third pTyr sites, with Phe at 1210 as in Nephrin3Y; also called p-TIR; p-TIR (3pY); source: E. coli BL21(DE3)T1R, purified (told for …)
In turn, B1 gave a Kd in experiment [1] of 40 nM.

B2: triply phosphorylated His8-tagged Nephrin cytoplasmic tail (amino acids 1174-1223, Y1183F, Y1210F; pTyr1176, pTyr1193, pTyr1217) (domain or fragment, human)
chain: GGSLEHHHHHHHHGGSCGGSGGSGGSGGSHLYDEVERTFPPSGAWGPLYDEVQMGPWDLHWPEDTFQDPRGIYDQVAGD
modifications: phosphotyrosine at Tyr1176, Tyr1193 and Tyr1217; maleimide Alexa488 on the single cysteine of the linker (bilayer experiments)
notes: N-terminal stretch as printed: holds the His8 tag named under tags and the (Gly-Gly-Ser)5 linker with the cysteine that is labelled; Nephrin, human, cytoplasmic tail residues 1174-1223 with Y1183F and Y1210F; also called p-Nephrin; Nephrin3Y (before phosphorylation); source: E. coli BL21(DE3)T1R, purified (Ni-NTA, Source 15Q, SD200); phosphorylated with Lck kinase and purified again (Source 15Q, …)
As for B2, the binding result in experiment [2] is recorded as “binds”. For the same molecule, the dissociation constant (Kd) in experiment [1] was determined as 370 nM.

As usually defined, the Kd is the concentration at which binding is half-saturated. A low value points to tighter binding.
